Measurements taken from patent EP4714973A1 (Gracell Bioscience (Shanghai) Co., Ltd., dated 2026).

B1: scFv antibody M26 with the Fc fragment of murine IgG2a at the C-terminal (Fc fusion, not shown: a dimerising Fc or GST; small tags and cut ends)
scFv: EVQLQQSGPELVKPGASVKMSCKASGYTFTSYFIHWVKQKPGQGLEWIGFINPYNDGSKYNEKFKGKATLTSDKSSSTAYMELSSLTSEDSAVYYCTRDDGYYGYAMDYWGQGTSVTVSSGGGGSGGGGSGGGGSDIQMTQSPSSLSASLGERVSLTCRATQELSGYLSWLQQKPDGTIKRLIYAASTLDSGVPKRFSGNRSGSDYSLTISSLESEDFADYYCLQYAIYPYTFGGGTKLEIK
notes: also called M26 scFv
B2: C9 single-domain antibody with the Fc fragment of murine IgG2a at the C-terminal (Fc fusion, not shown: a dimerising Fc or GST; small tags and cut ends)
VHH: QVQLVESGGGLVQPGGSLRLSCAASGFTFSSYAMGWARQVPGKDVEWVSGIYSDGSTYYADSVKGRFTISRYNAKNTVYLQMNSLKPEDTAVYYCATDPTLENQTTAWGQGTQVTVSS
notes: also called C9 VHH-mIgG2aFc
B3: C1 single-domain antibody with the Fc fragment of murine IgG2a at the C-terminal (Fc fusion)
chain: QVQLVESGGGLVQPGGSLRLSCAASGFTFSSKTMGWARQVPGKAIEWLSGIYSDGSTYYADSVKGRFTISRDNAKNMVYLQMNSLKPEDTAVYYCATEDLTSYGRGTQVTVSS
notes: also called C1 VHH-mIgG2aFc; not shown: Fc fragment of murine IgG2a, added to the C-terminal of the VHH
B4: C5 single-domain antibody with the Fc fragment of murine IgG2a at the C-terminal (Fc fusion, not shown: a dimerising Fc or GST; small tags and cut ends)
VHH: QVQLVESGGGLVQPGGSLRLSCAASGFTFSSYDMGWARQVPGKAVEWVSGIYSDGSTYYADSVKGRFTISRDNAKNTVYLQMNSLKPEDTAVYYCATDPLTSELRSWGQGTQVTVSS
notes: also called C5 VHH-mIgG2aFc
B5: C7 single-domain antibody with the Fc fragment of murine IgG2a at the C-terminal (Fc fusion, not shown: a dimerising Fc or GST; small tags and cut ends)
VHH: QVQLVESGGGLVQPGGSLRLSCAASGFTFSSYAMGWARQVPGKEVEWVSGIYSDGSTNYADSVKGRFTISRDNAKNTVYLQMNSLRPEDTAVYHCATDPTVHSDLPVWGQGTLVTVSS
notes: also called C7 VHH-mIgG2aFc
B6: C3 single-domain antibody with the Fc fragment of murine IgG2a at the C-terminal (Fc fusion, not shown: a dimerising Fc or GST; small tags and cut ends)
VHH: QVQLVESGGGLVQPGGSLRLSCAASGFTFSSYAMGWARQVPGKEVEWVSGIYSDGRTYYADSVKGRFTISRDNAKNEVYLQMNSLKPEDTAVYYCAPEPGQGVGDYWGQGTQVTVSS
notes: also called C3 VHH-mIgG2aFc

What follows are binders tested against T1, CLL1 on the surface of cells (HL60, KG1, Hela-CLL1) (UniProt Q5QGZ9 1-265, limits assumed) (assay: flow cytometry, serial dilution of scFv-mIgG2a Fc on HL60 cells (comparator, weaker signal)).
T1 construct: whole, on cells; HL60 and KG1 are human cell lines; also called CLEC12A; CD371
T1 sequence (looked up): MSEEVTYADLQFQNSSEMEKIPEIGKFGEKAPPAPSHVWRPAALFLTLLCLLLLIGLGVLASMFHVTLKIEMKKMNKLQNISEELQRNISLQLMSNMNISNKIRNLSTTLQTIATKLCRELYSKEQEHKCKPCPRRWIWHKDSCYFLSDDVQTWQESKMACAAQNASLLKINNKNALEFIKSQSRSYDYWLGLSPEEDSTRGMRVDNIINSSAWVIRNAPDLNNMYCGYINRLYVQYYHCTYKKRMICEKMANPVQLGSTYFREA

Row | Binder | binding result
1 | B1 | binds

Each binder was assayed against T1, CLL1 on the surface of cells (HL60, …) (assay: flow cytometry, serial dilution of VHH-mIgG2a Fc on HL60 cells).

Row | Binder | binding result
2 | B2 | binds
3 | B3 | binds
4 | B4 | binds
5 | B5 | binds
6 | B6 | binds
